{"source": "patent US20230322953A1", "about": "(HARBOUR BIOMED SHANGHAI, published 2023)", "key": {"[1]": {"target": "T1, cynomolgus monkey BCMA (ACRO Biosystems, #BCA-C82F4) (cynomolgus monkey, UniProt A0A2K5UD97 1-53)", "T1 construct": "Bought protein; also called cyBCMA.Fc", "T1 sequence (A0A2K5UD97 entry or part of it)": "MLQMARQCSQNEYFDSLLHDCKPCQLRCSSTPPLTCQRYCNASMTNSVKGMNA", "test": "BLI (Octet Red96e), cyBCMA.Fc on SA sensor, 1:1 global fitting"}, "[2]": {"target": "T2, human BCMA on NCI-H929 cells (ATCC, CRL-9068) (human, UniProt Q02223 1-184)", "T2 sequence (looked up)": "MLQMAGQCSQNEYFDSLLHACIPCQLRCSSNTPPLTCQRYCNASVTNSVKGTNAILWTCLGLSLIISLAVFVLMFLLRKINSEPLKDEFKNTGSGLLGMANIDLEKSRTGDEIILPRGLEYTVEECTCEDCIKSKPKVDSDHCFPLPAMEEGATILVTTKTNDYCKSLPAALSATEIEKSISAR", "test": "cell-based or functional assay"}, "[3]": {"target": "T3, human CD3 (TCR/CD3 complex) on human T cells (human, UniProt P07766 23-207)", "T3 construct": "whole, on cells", "T3 sequence (P07766 23-207, one chain of several)": "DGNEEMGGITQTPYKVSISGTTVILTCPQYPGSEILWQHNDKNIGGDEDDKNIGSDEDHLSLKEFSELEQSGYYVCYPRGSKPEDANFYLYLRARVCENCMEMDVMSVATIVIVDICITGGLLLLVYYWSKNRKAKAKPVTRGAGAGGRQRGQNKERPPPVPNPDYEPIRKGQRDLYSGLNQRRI", "test": "flow cytometry (FACS) on human T cells, Experiment 3"}, "[4]": {"target": "T4, cynomolgus monkey CD3 (TCR/CD3 complex) on cynomolgus monkey T cells (cynomolgus monkey)", "T4 construct": "whole, on cells", "T4 sequence (Q95LI5 22-198, one chain of several)": "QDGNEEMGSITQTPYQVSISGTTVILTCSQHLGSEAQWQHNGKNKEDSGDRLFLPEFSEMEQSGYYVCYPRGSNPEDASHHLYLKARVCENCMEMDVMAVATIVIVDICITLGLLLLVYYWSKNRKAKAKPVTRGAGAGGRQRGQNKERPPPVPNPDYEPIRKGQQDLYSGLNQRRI", "test": "flow cytometry (FACS) on cynomolgus monkey T cells"}, "[5]": {"target": "T5, biotinylated human BCMA-Fc, Avitag recombinant protein (ACRO Biosystems, #BC7-H82F0) (human, UniProt Q02223 1-54, biotinylated (Avitag))", "T5 construct": "extracellular domain; Bought protein; also called huBCMA.Fc; recombinant human BCMA-ECD-Fc", "T5 sequence (looked up)": "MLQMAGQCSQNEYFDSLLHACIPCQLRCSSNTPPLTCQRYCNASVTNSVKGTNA", "test": "BLI (Octet Red96e), biotinylated BCMA-Fc on SA sensor, 1:1 global fitting;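 note: Anti-BCMA antibodies analysed as binding partners of the captured BCMA antigen, with reference signals removed by double referencing before kinetic fitting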"}, "[6]": {"target": "T2, human BCMA on NCI-H929 cells (ATCC, …)", "test": "cell-based or functional assay", "remark": "listed apart in the source"}, "[7]": {"target": "T1, cynomolgus monkey BCMA (ACRO …)", "test": "BLI; KD for cynomolgus monkey BCMA divided by KD for human BCMA"}, "[8]": {"target": "T2, human BCMA on NCI-H929 cells (ATCC, …)", "test": "cell-based or functional assay", "remark": "listed apart in the source"}}}
{"binder": "PR002309 (bispecific antibody, human IgG1, lambda, L234A L235A) light: QAVVTQEPSLTVSPGGTVTLTCRSSTGAVTTSNYANWVQQKPGQAPRGLIGGTNKRAPWTPARFSGSLLGDKAALTLLGAQPEDEAEYFCALWYSNLWVFGGGTKLTVLGQPKAAPSVTLFPPSSEELQANKATLVCLISDFYPGAVTVAWKADSSPVKAGVETTTPSKQSNNKYAASSYLSLTPEQWKSHRSYSCQVTHEGSTVEKTVAPTECS heavy: EVQLLESGGGLVQPGGSLRLSCAASGFTFSTYAMNWVRQAPGKGLEWVSRIRSKYNNYATYYADSVKDRFTISRDDSKSTLYLQMNSLRAEDTAVYYCVRHGNFGNSYVSWFAYWGQGTLVTVSSASTKGPSVFPLAPSSKSTSGGTAALGCLVKDYFPEPVTVSWNSGALTSGVHTFPAVLQSSGLYSLSSVVTVPSSSLGTQTYICNVNHKPSNTKVDKKVEPKSCDKTHTCPPCPAPEAAGGPSVFLFPPKPKDTLMISRTPEVTCVVVDVSHEDPEVKFNWYVDGVEVHNAKTKPREEQYNSTYRVVSVLTVLHQDWLNGKEYKCKVSNKALGAPIEKTISKAKGQPREPQVYTLPPCREEMTKNQVSLWCLVKGFYPSDIAVEWESNGQPENNYKTTPPVLDSDGSFFLYSKLTVDKSRWQQGNVFSCSVMHEALHNHYTQKSLSLSPGK EVQLVETGGGLIQPGGSLRLSCAASGFTVSDNYMTWVRQAPGKGLEWVSVIFSGGNTYYADSVKGRFTISRDNAKNTLYLQMNSLRAEDTALYYCARRNYDDTRGTDVFDIWGQGTMVTVSSRTGGGGSGGGGSGGGGSKLEVQLVETGGGLIQPGGSLRLSCAASGFTVSDNYMTWVRQAPGKGLEWVSVIFSGGNTYYADSVKGRFTISRDNAKNTLYLQMNSLRAEDTALYYCARRNYDDTRGTDVFDIWGQGTMVTVSSASEPKSSDKTHTCPPCPAPEAAGGPSVFLFPPKPKDTLMISRTPEVTCVVVDVSHEDPEVKFNWYVDGVEVHNAKTKPREEQYNSTYRVVSVLTVLHQDWLNGKEYKCKVSNKALGAPIEKTISKAKGQPREPQVCTLPPSREEMTKNQVSLSCAVKGFYPSDIAVEWESNGQPENNYKTTPPVLDSDGSFFLVSKLTVDKSRWQQGNVFSCSVMHEALHNHYTQKSLSLSPGK", "values": [{"measurement": "Kd", "setting": "[1]", "result": 141, "unit": "pM"}, {"measurement": "koff", "setting": "[1]", "result": 0.000116, "unit": "s⁻¹"}, {"measurement": "kon", "setting": "[1]", "result": 823000, "unit": "M⁻¹ s⁻¹"}, {"measurement": "Killing EC50 (nM), T cell + NCI-H929, + 10 ng/mL sAPRIL", "setting": "[2]", "result": 0.000538, "unit": "nM"}, {"measurement": "Killing EC50 (nM), T cell + NCI-H929, + 10 ng/mL sBAFF", "setting": "[2]", "result": 0.000447, "unit": "nM"}, {"measurement": "Killing EC50 (nM), T cell + NCI-H929, + 100 ng/mL sAPRIL", "setting": "[2]", "result": 0.000991, "unit": "nM"}, {"measurement": "Killing EC50 (nM), T cell + NCI-H929, + 100 ng/mL sBAFF", "setting": "[2]", "result": 0.000474, "unit": "nM"}, {"measurement": "Killing EC50 (nM), T cell + NCI-H929, no soluble ligand", "setting": "[2]", "result": 0.000439, "unit": "nM"}, {"measurement": "Maximum MFI", "setting": "[3]", "result": 317000, "unit": "MFI"}, {"measurement": "Maximum MFI", "setting": "[4]", "result": 11700, "unit": "MFI"}, {"measurement": "Kd", "setting": "[5]", "result": 44.8, "unit": "pM"}, {"measurement": "koff", "setting": "[5]", "result": "1.89e-05", "unit": "s⁻¹"}, {"measurement": "kon", "setting": "[5]", "result": 422000, "unit": "M⁻¹ s⁻¹"}, {"measurement": "Killing EC50 (nM), T cell + NCI-H929, + 62.5 ng/mL sBCMA", "setting": "[6]", "result": 0.00296, "unit": "nM"}, {"measurement": "Killing EC50 (nM), T cell + NCI-H929, + 125 ng/mL sBCMA", "setting": "[6]", "result": 0.00347, "unit": "nM"}, {"measurement": "Killing EC50 (nM), T cell + NCI-H929, + 250 ng/mL sBCMA", "setting": "[6]", "result": 0.005, "unit": "nM"}, {"measurement": "Killing EC50 (nM), T cell + NCI-H929, + 500 ng/ml sBCMA", "setting": "[6]", "result": 0.0088, "unit": "nM"}, {"measurement": "Killing EC50 (nM), T cell + NCI-H929, no sBCMA", "setting": "[6]", "result": 0.000393, "unit": "nM"}, {"measurement": "KD ratio (cy BCMA/hu BCMA)", "setting": "[7]", "result": 3.16}, {"measurement": "IFN-γ release, EC50", "setting": "[8]", "result": 19.4, "unit": "pM"}, {"measurement": "IFN-γ release, Maximum", "setting": "[8]", "result": 1950, "unit": "pg/mL"}, {"measurement": "IL-2 release, EC50", "setting": "[8]", "result": 37.5, "unit": "pM"}, {"measurement": "IL-2 release, Maximum", "setting": "[8]", "result": 222, "unit": "pg/mL"}, {"measurement": "IL-6 release, EC50", "setting": "[8]", "result": 194, "unit": "pM"}, {"measurement": "IL-6 release, Maximum", "setting": "[8]", "result": 209, "unit": "pg/mL"}, {"measurement": "IL-10 release, EC50", "setting": "[8]", "result": 29.8, "unit": "pM"}, {"measurement": "IL-10 release, Maximum", "setting": "[8]", "result": 1050, "unit": "pg/mL"}, {"measurement": "NCI-H929 killing, EC50", "setting": "[8]", "result": 7.72, "unit": "pM"}, {"measurement": "NCI-H929 killing, Maximum killing rate %", "setting": "[8]", "result": 69.5, "unit": "%"}, {"measurement": "TNF-α release, EC50", "setting": "[8]", "result": 44.5, "unit": "pM"}, {"measurement": "TNF-α release, Maximum", "setting": "[8]", "result": 1300, "unit": "pg/mL"}]}
